From patent publication US20160031998A1 (CSL, published 2016)

Assays:
[1] = target: T1, human G-CSFR expressed on cells (Homo sapiens, UniProt Q99062 25-836); test: cell-based or functional assay
T1 sequence: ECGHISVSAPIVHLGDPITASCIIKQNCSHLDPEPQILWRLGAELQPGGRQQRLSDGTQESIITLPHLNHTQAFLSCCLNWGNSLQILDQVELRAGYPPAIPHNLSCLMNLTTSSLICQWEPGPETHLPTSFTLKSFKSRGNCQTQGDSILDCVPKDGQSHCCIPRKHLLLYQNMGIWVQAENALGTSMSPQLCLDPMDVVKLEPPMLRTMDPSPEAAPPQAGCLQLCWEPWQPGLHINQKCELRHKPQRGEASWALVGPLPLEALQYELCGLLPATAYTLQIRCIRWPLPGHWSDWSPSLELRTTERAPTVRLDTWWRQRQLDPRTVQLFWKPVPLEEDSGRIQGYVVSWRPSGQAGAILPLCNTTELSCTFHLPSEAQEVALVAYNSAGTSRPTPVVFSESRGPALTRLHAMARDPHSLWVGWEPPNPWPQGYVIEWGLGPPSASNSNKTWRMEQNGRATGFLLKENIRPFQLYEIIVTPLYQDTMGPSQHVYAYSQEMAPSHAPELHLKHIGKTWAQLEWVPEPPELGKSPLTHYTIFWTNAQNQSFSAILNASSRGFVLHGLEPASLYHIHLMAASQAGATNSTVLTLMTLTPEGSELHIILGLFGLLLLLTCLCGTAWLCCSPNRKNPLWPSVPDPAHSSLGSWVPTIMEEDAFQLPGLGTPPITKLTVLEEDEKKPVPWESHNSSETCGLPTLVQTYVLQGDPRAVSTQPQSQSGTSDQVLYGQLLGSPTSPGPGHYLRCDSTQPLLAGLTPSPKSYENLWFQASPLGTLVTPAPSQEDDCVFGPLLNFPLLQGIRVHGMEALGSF

[2] = target: T2, soluble hG-CSFR: amino acids 25-335 of Homo sapiens G-CSFR with mutations C78A, C163S and C228S and a … (Homo sapiens, UniProt Q99062 25-335); test: SPR (Biacore), mAb captured by anti-human IgG, soluble hG-CSFR injected
T2 chain: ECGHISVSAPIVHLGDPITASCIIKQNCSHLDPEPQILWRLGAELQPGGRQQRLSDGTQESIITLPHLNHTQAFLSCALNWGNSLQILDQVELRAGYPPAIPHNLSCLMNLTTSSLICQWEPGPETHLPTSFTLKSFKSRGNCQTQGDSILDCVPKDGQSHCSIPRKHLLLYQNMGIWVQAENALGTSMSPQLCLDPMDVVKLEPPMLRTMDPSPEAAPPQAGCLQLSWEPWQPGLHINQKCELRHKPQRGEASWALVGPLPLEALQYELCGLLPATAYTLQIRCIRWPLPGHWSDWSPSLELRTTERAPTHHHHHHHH
Experimental: Soluble hG-CSFR was injected for 5 minutes and dissociation was monitored for 30 minutes. Responses from a reference flow cell (in which mAb was not captured, but otherwise treated identically), were subtracted. The responses from a blank injection were then subtracted from the resultant sensorgrams.
The final corrected responses were fitted using non-linear regression to a model describing 1:1 kinetics, including a term for mass transport limitation. The Rmax value was fitted locally, to account for slight deviations in the level of mAb captured. Association rate (ka), dissociation rate (kd) and equilibrium dissociation constant (KD) were determined.

B1: C1.2G-44 (antibody, human IgG4, V domains shown)
VH: EVQLLESGGGLVQPGGSLRLSCAASGFTFSLYWMGWVRQAPGKGLEWVSSISSSGGVTPYADSVKGRFTISRDNSKNTLYLQMNSLRAEDTAVYYCAKLGELGWFDPWGQGTLVTVSS
VL: DIQMTQSPSSLSASVGDRVTITCRASQGISSYLNWYQQKPGKAPKLLIYYASNLQNGVPSRFSGSGSGTDFTLTISSLQPEDFATYYCQQSYSYPQKFGGGTKVEIK
notes: HCDR3 wt (VH of C1.2G); also called antibody 44
[1]
  IC50 (nM), inhibition of G-CSF-mediated proliferation of BaF3 cells: 0.39 nM
[2]
  Kd: 0.0733 nM

B2: C1.2G-999 (antibody, human IgG4, V domains shown)
VH: EVQLLESGGGLVQPGGSLRLSCAASGFTFSLYWMGWVRQAPGKGLEWVSSISSSGGVTPYADSVKGRFTISRDNSKNTLYLQMNSLRAEDTAVYYCAKLGELGMFHKWGQGTLVTVSS
VL: DIQMTQSPSSLSASVGDRVTITCRASQGISSYLNWYQQKPGKAPKLLIYYASNLQNGVPSRFSGSGSGTDFTLTISSLQPEDFATYYCQQSWEYAMFFGGGTKVEIK
notes: also called antibody 999
[2]
  Kd: 0.356 nM

B3: C1.2G-996 (antibody, human IgG4, V domains shown)
VH: EVQLLESGGGLVQPGGSLRLSCAASGFTFSLYWMGWVRQAPGKGLEWVSSISSSGGVTPYADSVKGRFTISRDNSKNTLYLQMNSLRAEDTAVYYCAKLGELGQYMGWGQGTLVTVSS
VL: DIQMTQSPSSLSASVGDRVTITCRASQGISSYLNWYQQKPGKAPKLLIYYASNLQNGVPSRFSGSGSGTDFTLTISSLQPEDFATYYCQQSMWMPIFFGGGTKVEIK
notes: also called antibody 996
[2]
  Kd: 0.336 nM

B4: C1.2G-43 (antibody, human IgG4, V domains shown)
VH: EVQLLESGGGLVQPGGSLRLSCAASGFTFSLYWMGWVRQAPGKGLEWVSSISSSGGVTPYADSVKGRFTISRDNSKNTLYLQMNSLRAEDTAVYYCAKLGELGQFMRWGQGTLVTVSS
VL: DIQMTQSPSSLSASVGDRVTITCRASQGISSYLNWYQQKPGKAPKLLIYYASNLQNGVPSRFSGSGSGTDFTLTISSLQPEDFATYYCQQSIGYPGSFGGGTKVEIK
notes: also called antibody 43
[2]
  Kd: 0.336 nM

B5: C1.2G-973 (antibody, human IgG4, V domains shown)
VH: EVQLLESGGGLVQPGGSLRLSCAASGFTFSLYWMGWVRQAPGKGLEWVSSISSSGGVTPYADSVKGRFTISRDNSKNTLYLQMNSLRAEDTAVYYCAKLGELGQMVYWGQGTLVTVSS
VL: DIQMTQSPSSLSASVGDRVTITCRASQGISSYLNWYQQKPGKAPKLLIYYASNLQNGVPSRFSGSGSGTDFTLTISSLQPEDFATYYCQQSFKYPMTFGGGTKVEIK
notes: also called antibody 973
[2]
  Kd: 0.23 nM

B6: C1.2G-984 (antibody, human IgG4, V domains shown)
VH: EVQLLESGGGLVQPGGSLRLSCAASGFTFSLYWMGWVRQAPGKGLEWVSSISSSGGVTPYADSVKGRFTISRDNSKNTLYLQMNSLRAEDTAVYYCAKLGELGMMQSWGQGTLVTVSS
VL: DIQMTQSPSSLSASVGDRVTITCRASQGISSYLNWYQQKPGKAPKLLIYYASNLQNGVPSRFSGSGSGTDFTLTISSLQPEDFATYYCQQSIEYPAHFGGGTKVEIK
notes: also called antibody 984
[2]
  Kd: 0.25 nM

B7: C1.2G-975 (antibody, human IgG4, V domains shown)
VH: EVQLLESGGGLVQPGGSLRLSCAASGFTFSLYWMGWVRQAPGKGLEWVSSISSSGGVTPYADSVKGRFTISRDNSKNTLYLQMNSLRAEDTAVYYCAKLGELGQSMLWGQGTLVTVSS
VL: DIQMTQSPSSLSASVGDRVTITCRASQGISSYLNWYQQKPGKAPKLLIYYASNLQNGVPSRFSGSGSGTDFTLTISSLQPEDFATYYCQQSWQIKLKFGGGTKVEIK
notes: also called antibody 975
[2]
  Kd: 0.209 nM

B8: C1.2G-977 (antibody, human IgG4, V domains shown)
VH: EVQLLESGGGLVQPGGSLRLSCAASGFTFSLYWMGWVRQAPGKGLEWVSSISSSGGVTPYADSVKGRFTISRDNSKNTLYLQMNSLRAEDTAVYYCAKLGELGEIREWGQGTLVTVSS
VL: DIQMTQSPSSLSASVGDRVTITCRASQGISSYLNWYQQKPGKAPKLLIYYASNLQNGVPSRFSGSGSGTDFTLTISSLQPEDFATYYCQQSWVYHLPFGGGTKVEIK
notes: also called antibody 977
[2]
  Kd: 0.246 nM

B9: C1.2G-63 (antibody, human IgG4, V domains shown)
VH: EVQLLESGGGLVQPGGSLRLSCAASGFTFSLYWMGWVRQAPGKGLEWVSSISSSGGVTPYADSVKGRFTISRDNSKNTLYLQMNSLRAEDTAVYYCAKLGELGWFDPWGQGTLVTVSS
VL: DIQMTQSPSSLSASVGDRVTITCRASQGISSYLNWYQQKPGKAPKLLIYYASNLQNGVPSRFSGSGSGTDFTLTISSLQPEDFATYYCANSWGYPLTFGGGTKVEIK
notes: HCDR3 wt (VH of C1.2G); also called antibody 63
[1]
  IC50 (nM), inhibition of G-CSF-mediated proliferation of BaF3 cells: 0.26 nM
[2]
  Kd: 0.161 nM

B10: C1.2G-852 (antibody, human IgG4, V domains shown)
VH: EVQLLESGGGLVQPGGSLRLSCAASGFTFSLYWMGWVRQAPGKGLEWVSSISSSGGVTPYADSVKGRFTISRDNSKNTLYLQMNSLRAEDTAVYYCAKLGELGHSLAWGQGTLVTVSS
VL: DIQMTQSPSSLSASVGDRVTITCRASQGISSYLNWYQQKPGKAPKLLIYYASNLQNGVPSRFSGSGSGTDFTLTISSLQPEDFATYYCQQSYSTPLTFGGGTKVEIK
notes: LCDR3 wt (VL of C1.2G); also called antibody 852
[2]
  Kd: 0.292 nM

B11: C1.2G-94 (antibody, human IgG4, V domains shown)
VH: EVQLLESGGGLVQPGGSLRLSCAASGFTFSLYWMGWVRQAPGKGLEWVSSISSSGGVTPYADSVKGRFTISRDNSKNTLYLQMNSLRAEDTAVYYCAKLGELGWFDPWGQGTLVTVSS
VL: DIQMTQSPSSLSASVGDRVTITCRASQGISSYLNWYQQKPGKAPKLLIYYASNLQNGVPSRFSGSGSGTDFTLTISSLQPEDFATYYCQQSWVYPAWFGGGTKVEIK
notes: HCDR3 wt (VH of C1.2G); also called antibody 94
[2]
  Kd: 0.189 nM

B12: C1.2G-75 (antibody, human IgG4, V domains shown)
VH: EVQLLESGGGLVQPGGSLRLSCAASGFTFSLYWMGWVRQAPGKGLEWVSSISSSGGVTPYADSVKGRFTISRDNSKNTLYLQMNSLRAEDTAVYYCAKLGELGWFDPWGQGTLVTVSS
VL: DIQMTQSPSSLSASVGDRVTITCRASQGISSYLNWYQQKPGKAPKLLIYYASNLQNGVPSRFSGSGSGTDFTLTISSLQPEDFATYYCEESMNYPLTFGGGTKVEIK
notes: HCDR3 wt (VH of C1.2G); also called antibody 75
[2]
  Kd: 0.211 nM

B13: C1.2G-870 (antibody, human IgG4, V domains shown)
VH: EVQLLESGGGLVQPGGSLRLSCAASGFTFSLYWMGWVRQAPGKGLEWVSSISSSGGVTPYADSVKGRFTISRDNSKNTLYLQMNSLRAEDTAVYYCAKLGELGWFDPWGQGTLVTVSS
VL: DIQMTQSPSSLSASVGDRVTITCRASQGISSYLNWYQQKPGKAPKLLIYYASNLQNGVPSRFSGSGSGTDFTLTISSLQPEDFATYYCQQSWMYHKIFGGGTKVEIK
notes: HCDR3 wt (VH of C1.2G); also called antibody 870
[2]
  Kd: 0.367 nM

B14: C1.2G-56 (antibody, human IgG4, V domains shown)
VH: EVQLLESGGGLVQPGGSLRLSCAASGFTFSLYWMGWVRQAPGKGLEWVSSISSSGGVTPYADSVKGRFTISRDNSKNTLYLQMNSLRAEDTAVYYCAKLGELGWFDPWGQGTLVTVSS
VL: DIQMTQSPSSLSASVGDRVTITCRASQGISSYLNWYQQKPGKAPKLLIYYASNLQNGVPSRFSGSGSGTDFTLTISSLQPEDFATYYCQQSYMYPIKFGGGTKVEIK
notes: HCDR3 wt (VH of C1.2G); also called antibody 56
[1]
  IC50 (nM), inhibition of G-CSF-mediated proliferation of BaF3 cells: 0.22 nM
[2]
  Kd: 0.0993 nM

B15: C1.2G-77 (antibody, human IgG4, V domains shown)
VH: EVQLLESGGGLVQPGGSLRLSCAASGFTFSLYWMGWVRQAPGKGLEWVSSISSSGGVTPYADSVKGRFTISRDNSKNTLYLQMNSLRAEDTAVYYCAKLGELGWFDPWGQGTLVTVSS
VL: DIQMTQSPSSLSASVGDRVTITCRASQGISSYLNWYQQKPGKAPKLLIYYASNLQNGVPSRFSGSGSGTDFTLTISSLQPEDFATYYCEQGWNYPLTFGGGTKVEIK
notes: HCDR3 wt (VH of C1.2G); also called antibody 77
[1]
  IC50 (nM), inhibition of G-CSF-mediated proliferation of BaF3 cells: 0.23 nM
[2]
  Kd: 0.107 nM

B16: C1.2G-877 (antibody, human IgG4, V domains shown)
VH: EVQLLESGGGLVQPGGSLRLSCAASGFTFSLYWMGWVRQAPGKGLEWVSSISSSGGVTPYADSVKGRFTISRDNSKNTLYLQMNSLRAEDTAVYYCAKLGELGWFDPWGQGTLVTVSS
VL: DIQMTQSPSSLSASVGDRVTITCRASQGISSYLNWYQQKPGKAPKLLIYYASNLQNGVPSRFSGSGSGTDFTLTISSLQPEDFATYYCQQSFRYPFYFGGGTKVEIK
notes: HCDR3 wt (VH of C1.2G); also called antibody 877
[2]
  Kd: 0.508 nM

B17: C1.2G-814 (antibody, human IgG4, V domains shown)
VH: EVQLLESGGGLVQPGGSLRLSCAASGFTFSLYWMGWVRQAPGKGLEWVSSISSSGGVTPYADSVKGRFTISRDNSKNTLYLQMNSLRAEDTAVYYCAKLGELGWFDPWGQGTLVTVSS
VL: DIQMTQSPSSLSASVGDRVTITCRASQGISSYLNWYQQKPGKAPKLLIYYASNLQNGVPSRFSGSGSGTDFTLTISSLQPEDFATYYCSQSMEYPLTFGGGTKVEIK
notes: HCDR3 wt (VH of C1.2G); also called antibody 814
[2]
  Kd: 0.221 nM
